Results from PMC2945613 (Molecular cell, 2010).
Residue numbers refer to the chain shown, from its start. Names may count otherwise.

T1: eIF4G1 (yeast eIF4G, wild type) (S. cerevisiae, UniProt P39935 1-952)
T1 sequence (looked up): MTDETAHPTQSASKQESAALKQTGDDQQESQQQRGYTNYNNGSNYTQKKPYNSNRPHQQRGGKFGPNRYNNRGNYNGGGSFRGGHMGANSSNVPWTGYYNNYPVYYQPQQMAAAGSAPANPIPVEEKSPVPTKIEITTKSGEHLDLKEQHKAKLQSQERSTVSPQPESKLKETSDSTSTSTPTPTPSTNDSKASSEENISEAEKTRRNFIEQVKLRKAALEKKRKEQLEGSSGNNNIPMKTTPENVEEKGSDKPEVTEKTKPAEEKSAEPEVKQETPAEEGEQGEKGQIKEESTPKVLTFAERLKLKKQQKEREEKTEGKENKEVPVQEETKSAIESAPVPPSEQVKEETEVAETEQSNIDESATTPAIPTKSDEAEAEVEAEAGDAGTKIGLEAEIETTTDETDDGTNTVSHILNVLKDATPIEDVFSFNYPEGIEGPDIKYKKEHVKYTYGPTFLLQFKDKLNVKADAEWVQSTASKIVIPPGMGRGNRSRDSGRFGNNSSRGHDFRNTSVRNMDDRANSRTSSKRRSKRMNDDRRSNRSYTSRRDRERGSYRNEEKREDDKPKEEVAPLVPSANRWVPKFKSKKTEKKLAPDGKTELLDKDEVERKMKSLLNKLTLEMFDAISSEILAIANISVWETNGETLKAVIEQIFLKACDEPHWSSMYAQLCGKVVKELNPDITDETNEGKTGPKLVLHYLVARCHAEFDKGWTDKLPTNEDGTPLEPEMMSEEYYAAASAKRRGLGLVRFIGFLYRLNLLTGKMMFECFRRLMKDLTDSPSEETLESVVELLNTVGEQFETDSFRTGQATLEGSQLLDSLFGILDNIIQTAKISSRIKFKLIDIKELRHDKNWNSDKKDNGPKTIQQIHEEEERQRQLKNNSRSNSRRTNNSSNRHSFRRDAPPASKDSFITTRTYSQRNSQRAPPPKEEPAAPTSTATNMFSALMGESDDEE

T2: eIF4E•eIF4G complex (S. cerevisiae, UniProt P07260 1-213; P39935 1-952)
T2 sequence (looked up) 1: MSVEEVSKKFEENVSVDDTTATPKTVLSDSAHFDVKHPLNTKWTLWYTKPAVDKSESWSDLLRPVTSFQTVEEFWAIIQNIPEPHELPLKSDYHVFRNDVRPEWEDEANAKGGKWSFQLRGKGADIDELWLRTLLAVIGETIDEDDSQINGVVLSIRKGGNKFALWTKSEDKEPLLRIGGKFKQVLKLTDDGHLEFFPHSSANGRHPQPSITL
T2 sequence (looked up) 2: T1 sequence (looked up)

B1: eIF4E-Fl (yeast eIF4E S200C labelled with fluorescein maleimide) (natural protein, S. cerevisiae, UniProt P07260 1-213, looked up)
chain: T2 sequence (looked up) 1 with S200C
modifications: fluorescein maleimide on the introduced cysteine (S200C)
B2: eIF4A-TAMRA (enzyme, S. cerevisiae, UniProt P10081 1-395, looked up)
chain: MSEGITDIEESQIQTNYDKVVYKFDDMELDENLLRGVFGYGFEEPSAIQQRAIMPIIEGHDVLAQAQSGTGKTGTFSIAALQRIDTSVKAPQALMLAPTRELALQIQKVVMALAFHMDIKVHACIGGTSFVEDAEGLRDAQIVVGTPGRVFDNIQRRRFRTDKIKMFILDEADEMLSSGFKEQIYQIFTLLPPTTQVVLLSATMPNDVLEVTTKFMRNPVRILVKKDELTLEGIKQFYVNVEEEEYKYECLTDLYDSISVTQAVIFCNTRRKVEELTTKLRNDKFTVSAIYSDLPQQERDTIMKEFRSGSSRILISTDLLARGIDVQQVSLVINYDLPANKENYIHRIGRGGRFGRKGVAINFVTNEDVGAMRELEKFYSTQIEELPSDIATLLN
modifications: TAMRA label, attached by expressed protein ligation

Columns and labels:
Experiment in all cases: fluorescence polarisation
[1] = molecular target: eIF5-TAMRA (S. cerevisiae) (UniProt P38431)
[2] = molecular target: eIF1-TAMRA (S. cerevisiae) (UniProt P32911)
eIF4B-Fl (S. cerevisiae) = eIF4B-Fl (S. cerevisiae) (UniProt P34167)
[3] = molecular target: T1, eIF4G1 (yeast eIF4G, wild type)
eIF4E•eIF4G complex = molecular target: T2, eIF4E•eIF4G complex

Chain of eIF5-TAMRA (S. cerevisiae) (P38431 whole entry): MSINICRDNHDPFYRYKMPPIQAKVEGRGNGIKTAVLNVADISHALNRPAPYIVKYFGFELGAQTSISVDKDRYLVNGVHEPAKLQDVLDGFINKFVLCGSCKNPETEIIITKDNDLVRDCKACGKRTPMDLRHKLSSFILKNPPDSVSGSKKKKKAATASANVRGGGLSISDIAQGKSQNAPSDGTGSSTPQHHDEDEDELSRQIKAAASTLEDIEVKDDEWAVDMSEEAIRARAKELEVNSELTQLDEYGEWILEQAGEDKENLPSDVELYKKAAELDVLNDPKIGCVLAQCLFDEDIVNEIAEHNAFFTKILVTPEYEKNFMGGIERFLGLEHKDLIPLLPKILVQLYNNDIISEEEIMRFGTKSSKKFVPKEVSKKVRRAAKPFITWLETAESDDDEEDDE
Chain of eIF1-TAMRA (S. cerevisiae) (P32911 whole entry): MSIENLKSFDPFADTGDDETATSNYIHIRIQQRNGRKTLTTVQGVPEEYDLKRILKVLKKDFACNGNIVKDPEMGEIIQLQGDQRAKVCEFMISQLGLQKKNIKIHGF

| Molecule | Kd [1] [µM] | Kd [2] [µM] | Kd (eIF4B-Fl (S. cerevisiae)) [µM] | Kd [3] [µM] | binding result (eIF4E•eIF4G complex) |
| --- | --- | --- | --- | --- | --- |
| eIF3 (yeast multisubunit complex) | 0.015 | 0.115 | 0.38 |  |  |
| B1 |  |  |  | < 0.015 |  |
| B2 |  |  |  | 0.2 | binds |
